Measurements: article PMC2908990

Target: CH1 domain of the murine IgG1 heavy chain, oxidized (internal disulfide bridge formed) (murine) [IgG part: P01868]
Assay: other fluorescence titration

Kd: 6.2 µM
Substance: CL domain of the murine MAK33 κ light chain (from UniProt P01837 1-107) (domain or fragment)
